Positions count from the first letter of the chain named.
How the values were obtained:
Test in all cases: holdup assay
Design in all cases: key: below the threshold = too weak to quantify, mostly under pKd 3.1 to 4
AHNAK1, Q09666 = biological target: AHNAK1, Q09666
APBA1_1, Q02410 = biological target: T1, APBA1_1, Q02410
T1 sequence (Q02410 651-752, limits assumed, looked up): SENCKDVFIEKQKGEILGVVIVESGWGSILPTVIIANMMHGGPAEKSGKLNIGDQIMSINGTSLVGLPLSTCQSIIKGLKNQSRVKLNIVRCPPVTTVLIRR

ARHGEF12, Q9NZN5-2 = biological target: ARHGEF12, Q9NZN5-2
Chain of ARHGEF12, Q9NZN5-2 (Q9NZN5 other isoform, or with tags, fused parts or gaps): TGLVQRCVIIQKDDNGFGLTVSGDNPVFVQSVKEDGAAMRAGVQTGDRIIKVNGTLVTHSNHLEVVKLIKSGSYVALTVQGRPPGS

CASK, O14936 = biological target: CASK, O14936
Chain of CASK, O14936 (O14936 487-570): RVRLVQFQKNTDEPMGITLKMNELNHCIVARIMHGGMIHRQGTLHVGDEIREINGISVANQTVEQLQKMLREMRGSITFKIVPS

DLG3_3, Q92796 = biological target: T2, DLG3_3, Q92796
T2 sequence (Q92796 374-475, limits assumed, looked up): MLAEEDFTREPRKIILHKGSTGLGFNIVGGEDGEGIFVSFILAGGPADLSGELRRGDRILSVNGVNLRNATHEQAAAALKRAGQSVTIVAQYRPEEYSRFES

GORASP1, Q9BQQ3 = biological target: GORASP1, Q9BQQ3
Chain of GORASP1, Q9BQQ3 (Q9BQQ3 1-208): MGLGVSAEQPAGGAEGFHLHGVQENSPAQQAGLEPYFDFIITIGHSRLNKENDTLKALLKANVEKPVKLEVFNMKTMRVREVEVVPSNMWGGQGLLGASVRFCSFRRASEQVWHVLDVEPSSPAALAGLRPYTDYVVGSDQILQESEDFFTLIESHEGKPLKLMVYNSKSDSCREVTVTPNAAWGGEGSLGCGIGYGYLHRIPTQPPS

GRIP1_2, Q9Y3R0 = biological target: T3, GRIP1_2, Q9Y3R0
T3 sequence (Q9Y3R0 145-248, limits assumed, looked up): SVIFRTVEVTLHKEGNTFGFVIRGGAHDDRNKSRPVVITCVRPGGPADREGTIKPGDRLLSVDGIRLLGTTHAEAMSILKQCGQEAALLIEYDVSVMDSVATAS

GRIP1_7, Q9Y3R0 = biological target: T4, GRIP1_7, Q9Y3R0
T4 sequence (Q9Y3R0 999-1096, limits assumed, looked up): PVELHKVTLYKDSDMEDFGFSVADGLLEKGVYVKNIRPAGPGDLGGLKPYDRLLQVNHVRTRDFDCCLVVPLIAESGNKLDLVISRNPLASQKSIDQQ

HTRA2, O43464 = biological target: HTRA2, O43464
Chain of HTRA2, O43464 (O43464 355-458): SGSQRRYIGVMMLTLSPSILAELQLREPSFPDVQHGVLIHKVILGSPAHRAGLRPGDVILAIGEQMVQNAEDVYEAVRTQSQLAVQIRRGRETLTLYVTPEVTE

Inadl_1, Q8NI35 = biological target: Inadl_1, Q8NI35
Chain of Inadl_1, Q8NI35 (Q8NI35 113-229): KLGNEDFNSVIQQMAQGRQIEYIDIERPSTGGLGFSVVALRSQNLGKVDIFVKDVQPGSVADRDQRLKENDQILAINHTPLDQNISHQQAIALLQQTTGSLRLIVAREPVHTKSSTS

Inadl_8, Q8NI35 = biological target: Inadl_8, Q8NI35
Chain of Inadl_8, Q8NI35 (Q8NI35 1425-1530): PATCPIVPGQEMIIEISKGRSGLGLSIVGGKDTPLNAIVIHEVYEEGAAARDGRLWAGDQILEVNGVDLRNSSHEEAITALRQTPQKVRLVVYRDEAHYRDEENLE

LIN7B, Q9HAP6 = biological target: T5, LIN7B, Q9HAP6
T5 sequence (Q9HAP6 88-185, limits assumed, looked up): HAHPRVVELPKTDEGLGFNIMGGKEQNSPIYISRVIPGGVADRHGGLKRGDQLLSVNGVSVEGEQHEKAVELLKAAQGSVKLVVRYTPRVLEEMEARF

LIN7C, Q9NUP9 = biological target: T6, LIN7C, Q9NUP9
T6 sequence (Q9NUP9 88-185, limits assumed, looked up): T5 sequence (Q9HAP6 88-185, limits assumed, looked up) with A2S, D13E, V35I, V40I, Q65H, S79K, R89K, A96S

LNX1_1, Q8TBB1 = biological target: LNX1_1, Q8TBB1
Chain of LNX1_1, Q8TBB1 (Q8TBB1 261-371): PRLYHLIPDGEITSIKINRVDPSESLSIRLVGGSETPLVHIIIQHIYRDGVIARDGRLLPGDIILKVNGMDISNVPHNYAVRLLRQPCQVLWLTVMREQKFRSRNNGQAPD

MAGI2_3, Q86UL8 = biological target: MAGI2_3, Q86UL8
Chain of MAGI2_3, Q86UL8 (Q86UL8 600-682): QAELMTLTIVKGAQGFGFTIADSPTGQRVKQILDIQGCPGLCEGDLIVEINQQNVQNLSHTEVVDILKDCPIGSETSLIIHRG

MAGI2_5, Q86UL8 = biological target: MAGI2_5, Q86UL8
Chain of MAGI2_5, Q86UL8 (Q86UL8 915-1017): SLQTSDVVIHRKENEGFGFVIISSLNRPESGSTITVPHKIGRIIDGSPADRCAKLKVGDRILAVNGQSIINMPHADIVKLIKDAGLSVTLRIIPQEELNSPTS

MAGI3_2, Q5TCQ9 = biological target: MAGI3_2, Q5TCQ9
Chain of MAGI3_2, Q5TCQ9 (Q5TCQ9 398-503): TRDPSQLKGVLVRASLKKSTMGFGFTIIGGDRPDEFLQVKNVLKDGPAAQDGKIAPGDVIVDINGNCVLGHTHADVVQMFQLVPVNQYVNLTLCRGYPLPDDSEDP

MAST1, Q9Y2H9 = biological target: MAST1, Q9Y2H9
Chain of MAST1, Q9Y2H9 (Q9Y2H9 962-1065): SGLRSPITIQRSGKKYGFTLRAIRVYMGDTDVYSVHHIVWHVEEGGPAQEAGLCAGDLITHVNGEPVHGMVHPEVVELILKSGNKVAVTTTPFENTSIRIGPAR

MAST2, Q6P0Q8 = biological target: MAST2, Q6P0Q8
Chain of MAST2, Q6P0Q8 (Q6P0Q8 1099-1202): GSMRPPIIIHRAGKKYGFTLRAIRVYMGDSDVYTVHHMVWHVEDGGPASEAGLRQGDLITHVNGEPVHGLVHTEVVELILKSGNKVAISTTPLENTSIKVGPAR

NHERF2_2, Q15599 = biological target: NHERF2_2, Q15599
Chain of NHERF2_2, Q15599 (Q15599 142-238): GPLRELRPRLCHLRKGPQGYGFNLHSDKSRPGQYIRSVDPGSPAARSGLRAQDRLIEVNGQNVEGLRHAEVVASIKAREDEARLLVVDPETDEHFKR

NHERF4_1, Q86UT5-2 = biological target: NHERF4_1, Q86UT5-2
Chain of NHERF4_1, Q86UT5-2 (Q86UT5 other isoform, or with tags, fused parts or gaps): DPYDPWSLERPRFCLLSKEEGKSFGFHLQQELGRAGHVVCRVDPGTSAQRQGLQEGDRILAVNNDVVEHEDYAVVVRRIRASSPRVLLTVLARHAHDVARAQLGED

PARD3_3, Q8TEW0 = biological target: PARD3_3, Q8TEW0
Chain of PARD3_3, Q8TEW0 (Q8TEW0 582-685): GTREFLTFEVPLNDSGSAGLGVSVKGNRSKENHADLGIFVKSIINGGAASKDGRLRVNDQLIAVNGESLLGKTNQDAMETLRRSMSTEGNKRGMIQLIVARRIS

PDLIM1, O00151 = biological target: PDLIM1, O00151
Chain of PDLIM1, O00151 (O00151 1-87): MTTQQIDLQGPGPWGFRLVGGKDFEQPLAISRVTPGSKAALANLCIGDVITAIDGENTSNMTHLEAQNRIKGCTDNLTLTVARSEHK

PTPN3, P26045 = biological target: PTPN3, P26045
Chain of PTPN3, P26045 (P26045 505-587): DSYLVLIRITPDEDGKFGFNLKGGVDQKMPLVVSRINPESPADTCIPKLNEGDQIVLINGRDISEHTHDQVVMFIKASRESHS

SCRIB_1, Q14160 = biological target: SCRIB_1, Q14160
Chain of SCRIB_1, Q14160 (Q14160 718-814): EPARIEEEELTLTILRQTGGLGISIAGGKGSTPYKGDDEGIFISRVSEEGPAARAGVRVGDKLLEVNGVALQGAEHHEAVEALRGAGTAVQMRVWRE

SCRIB_2, Q14160 = biological target: SCRIB_2, Q14160
Chain of SCRIB_2, Q14160 (Q14160 857-960): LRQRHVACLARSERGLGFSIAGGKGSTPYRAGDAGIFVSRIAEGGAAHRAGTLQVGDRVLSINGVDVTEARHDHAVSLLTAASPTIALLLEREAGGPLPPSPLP

SCRIB_3, Q14160 = biological target: SCRIB_3, Q14160
Chain of SCRIB_3, Q14160 (Q14160 999-1103): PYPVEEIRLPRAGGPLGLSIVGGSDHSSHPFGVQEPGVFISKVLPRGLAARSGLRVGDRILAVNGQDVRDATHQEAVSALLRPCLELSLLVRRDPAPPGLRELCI

SNTG2, Q9NY99 = biological target: T7, SNTG2, Q9NY99
T7 sequence (Q9NY99 68-166, limits assumed, looked up): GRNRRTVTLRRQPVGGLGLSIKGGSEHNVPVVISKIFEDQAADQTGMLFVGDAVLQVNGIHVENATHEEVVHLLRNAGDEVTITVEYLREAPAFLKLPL

SNX27, Q96L92 = biological target: SNX27, Q96L92
TJP1_2, Q07157 = biological target: TJP1_2, Q07157
Chain of TJP1_2, Q07157 (Q07157 181-274): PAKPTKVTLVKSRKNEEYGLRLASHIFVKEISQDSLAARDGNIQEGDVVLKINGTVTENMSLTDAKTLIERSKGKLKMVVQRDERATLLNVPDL

TJP3_3, O95049 = biological target: T8, TJP3_3, O95049
T8 sequence (O95049 375-456, limits assumed, looked up): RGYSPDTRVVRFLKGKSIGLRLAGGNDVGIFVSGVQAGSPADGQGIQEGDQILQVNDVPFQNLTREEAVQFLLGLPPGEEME

[1] = plain residues with an end cap or a label only (N-terminal biotin on a linker: ado-ado)
[2] = plain residues with an end cap or a label only (N-terminal biotin on a linker: ttds)

Chain of AHNAK1, Q09666 (Q09666 4-100): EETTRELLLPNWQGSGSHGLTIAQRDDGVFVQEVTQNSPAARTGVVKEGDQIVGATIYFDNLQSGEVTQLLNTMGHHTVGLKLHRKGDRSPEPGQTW

For GKKSVKHSKI [ACOT6, Q3I5F7], the pKd (AHNAK1, Q09666; [1]) was “below the threshold”, the pKd (APBA1_1, Q02410; [1]) was “below the threshold” and the pKd (ARHGEF12, Q9NZN5-2; [1]) was 3.92. The pKd (CASK, O14936; [1]) was “below the threshold”, the pKd (DLG3_3, Q92796; [1]) was “below the threshold” and the pKd (GORASP1, Q9BQQ3; [1]) was “below the threshold”. The pKd (GRIP1_2, Q9Y3R0; [1]) was “below the threshold”, the pKd (GRIP1_7, Q9Y3R0; [1]) was “below the threshold” and the pKd (HTRA2, O43464; [1]) was “below the threshold”. The pKd (Inadl_1, Q8NI35; [1]) was “below the threshold”, the pKd (Inadl_8, Q8NI35; [1]) was 3.88 and the pKd (LIN7B, Q9HAP6; [1]) was “below the threshold”. The pKd (LIN7C, Q9NUP9; [1]) was 3.48, the pKd (LNX1_1, Q8TBB1; [1]) was “below the threshold” and the pKd (MAGI2_3, Q86UL8; [1]) was “below the threshold”. The pKd (MAGI2_5, Q86UL8; [1]) was “below the threshold”, the pKd (MAGI3_2, Q5TCQ9; [1]) was 4.07 and the pKd (MAST1, Q9Y2H9; [1]) was “below the threshold”. The pKd (MAST2, Q6P0Q8; [1]) was 4.03, the pKd (NHERF2_2, Q15599; [1]) was “below the threshold” and the pKd (NHERF4_1, Q86UT5-2; [1]) was “below the threshold”. The pKd (PARD3_3, Q8TEW0; [1]) was “below the threshold”, the pKd (PDLIM1, O00151; [1]) was “below the threshold” and the pKd (PTPN3, P26045; [1]) was 4.19. For the same binder, the pKd (SCRIB_1, Q14160; [1]) was 3.82, the pKd (SCRIB_2, Q14160; [1]) was “below the threshold” and the pKd (SCRIB_3, Q14160; [1]) was “below the threshold”. For the same binder, the pKd (SNTG2, Q9NY99; [1]) was 3.52, the pKd (SNX27, Q96L92; [1]) was “below the threshold” and the pKd (TJP1_2, Q07157; [1]) was “below the threshold”. For the same binder, the pKd (TJP3_3, O95049; [1]) was “below the threshold”.

In the case of NQLAWFDTDL [CTNNB1, P35222], the pKd (AHNAK1, Q09666; [2]) is reported as “below the threshold”, the pKd (APBA1_1, Q02410; [2]) is reported as “below the threshold” and the pKd (ARHGEF12, Q9NZN5-2; [2]) is reported as 4.2. The pKd (CASK, O14936; [2]) was “below the threshold”, the pKd (DLG3_3, Q92796; [2]) was “below the threshold” and the pKd (GORASP1, Q9BQQ3; [2]) was “below the threshold”. The pKd (GRIP1_2, Q9Y3R0; [2]) was “below the threshold”, the pKd (GRIP1_7, Q9Y3R0; [2]) was 3.63 and the pKd (HTRA2, O43464; [2]) was “below the threshold”. For the same binder, the pKd (Inadl_1, Q8NI35; [2]) was “below the threshold”, the pKd (Inadl_8, Q8NI35; [2]) was “below the threshold” and the pKd (LIN7B, Q9HAP6; [2]) was “below the threshold”. For the same binder, the pKd (LIN7C, Q9NUP9; [2]) was “below the threshold”, the pKd (LNX1_1, Q8TBB1; [2]) was 3.47 and the pKd (MAGI2_3, Q86UL8; [2]) was “below the threshold”. For the same binder, the pKd (MAGI2_5, Q86UL8; [2]) was “below the threshold”, the pKd (MAGI3_2, Q5TCQ9; [2]) was “below the threshold” and the pKd (MAST1, Q9Y2H9; [2]) was 4.83. The pKd (MAST2, Q6P0Q8; [2]) was 6.04, the pKd (NHERF2_2, Q15599; [2]) was 4.87 and the pKd (NHERF4_1, Q86UT5-2; [2]) was “below the threshold”. For the same binder, the pKd (PARD3_3, Q8TEW0; [2]) was “below the threshold”, the pKd (PDLIM1, O00151; [2]) was 4.16 and the pKd (PTPN3, P26045; [2]) was 4.33. It also gave a pKd (SCRIB_1, Q14160; [2]) of 4.86, a pKd (SCRIB_2, Q14160; [2]) of 3.57 and a pKd (SCRIB_3, Q14160; [2]) of 4.82. The pKd (SNTG2, Q9NY99; [2]) was “below the threshold”, the pKd (SNX27, Q96L92; [2]) was 4.91 and the pKd (TJP1_2, Q07157; [2]) was “below the threshold”. For the same binder, the pKd (TJP3_3, O95049; [2]) was “below the threshold”.

Source: article PMC9482650, “Quantitative fragmentomics allow affinity mapping of interactomes” (Nature Communications, 2022)
